One assay has as its target βarr1 (Homo sapiens, UniProt P49407, A12C/C125S/C140L/C150V/C242V/C251V/C269S/C59V/V387C). The assay is described as follows: smFRET imaging of surface-tethered βarr1–12-387-AF488-AT647N C-tail sensor. The settings on record: parent sensor, 100 μM PIP2. Type of assay: biochemical.
For another assay, the target named is 3Q βarr1 (Homo sapiens, UniProt P49407, C125S/C140L/C150V/C242V/C251V/C269S/C59V/K232Q/K250Q/R236Q). The assay can be described thus: Fluorescence polarization binding of BODIPY-PIP2 to 3Q βarr1. To be noted: FP with a BODIPY-derivative of PIP2.
Assay [1] concerns the target βarr1–12-398-AF488-AT647 (human) (UniProt P49407).
Assay [2] addresses βarr1–12-387-AF488-AT647N (cysteine-free human β-arrestin 1 C-tail sensor with cysteines at positions 12 and 387) (human) (UniProt P49407). The assay is described as follows: other fluorescence titration.
Assay [3] deals with 3A βarr1 (F388A/V387C/I386A triple mutant of the βarr1–12-387 C-tail sensor) (human) (UniProt P49407). The assay can be described thus: single-molecule FRET.
For assay [4], the target named is βarr1–12-387-AF488-AT647N (cysteine-free human β-arrestin 1 C-tail sensor with cysteines at positions 12 and 387) (human) (UniProt P49407). The assay can be described thus: single-molecule FRET.
Assay [5] shares this target. The assay can be described thus: single-molecule FRET. The source holds these as a separate data set.

Where no end group is shown, it is not given here. [ ]: non-standard residue; d: D form. pT = C[C@@H](OP(=O)(O)O)[C@H](N)C(=O)O; pS = N[C@@H](COP(=O)(O)O)C(=O)O

In the case of “phosphatidylinositol 4,5-bisphosphate [PIP2]”, the “mid-FRET dwell time representing the PIP2-bound state” value at βarr1 is listed as about 2 s. The “binding of PIP2 to βarr1 3Q” value on 3Q βarr1 was “essentially lost binding”.
Broadly, the EC50 is the midpoint of the concentration-response curve. For ARGR[pT]PP[pS]LGPQDE[pS]C[pT][pT]A[pS][pS][pS]LAKDTSS, the EC50 in assay [1] came out at 0.75 µM; in assay [2], 1.5 µM; in assay [3] it was 0.4 µM; in assay [4], 11.8 µM; in assay [5], 11.6 µM.
In turn, ARGRTPPSLGPQDESCT[pT]A[pS][pS][pS]LAKDTSS [P56, V2Rpp-derived phosphopeptide lacking four N-terminal phosphorylation sites] registered an EC50 in assay [2] of 30 µM.

The values above are taken from article PMC12157425 (bioRxiv, 2025).
